Data set [1] concerns the molecule itself. In words: SEC + SEC-MALS; purified His-tagged β-clampSam; gel filtration (single peak, about 97 kDa) and SEC-MALS (about 84 kDa).
Data set [2] concerns the molecule itself. In words: SEC-MALS; fractions of the main gel filtration peak of NucSSam; molecular weights determined on the right side of the peaks because peak homogeneity was moderate.

B1: β-clamp from Streptomyces ambofaciens (β-clampSam), N-terminal His-tagged (natural protein)
chain: MKIRVERDVLAEAVAWAARSLPARPPAPVLAGLLLKAEEGQLSLSSFDYEVSARVSVEAEVEEEGTVLVSGRLLADISRALPNRPVEISTDGVRATVVCGSSRFTLHTLPVEEYPALPQMPEATGTVPGEVFAAAVQQVAIAAGRDDTLPVLTGVRIEIEGDSVTLASTDRYRFAVREFLWKPENPEVSAVALVPAKTLQDTAKALTSGDQVILALAGSGAGEGLIGFEGAGRRTTTRLLEGDLPKYKTLFPTEFNSIAVIETAPFVEAVKRVALVAERNTPVRLSFEQGVLILEAGSSDDAQAVERVDAQLEGDDISIAFNPTFLLDGLSAIDSPVAQLSFTTSTKPALLSGKPAVDAEADEAYKYLIMPVRLSG
With B1, in data set [1], the “stoichiometry N” value stood at 2.

B2: NucS from Streptomyces ambofaciens (NucSSam), N-terminal His-tagged (enzyme, Streptomyces ambofaciens ATCC23877, UniProt A0ABN4PBG3 1-223, looked up)
chain: MRLVIARCSVDYAGRLTAHLPSAPRLILVKADGSVSIHADDRAYKPLNWMSPPCTLKEGTGEEEGVWTVVNKAGEKLIITMEEILHDSSHELGVDPGLIKDGVEAHLQELLADRIETLGEGYTLIRREYMTAIGPVDILCRDAEGRTVAVEIKRRGEIDGVEQLTRYLELLNRDPHLAPVRGVFAAQEIKPQARVLATDRGIGCQVLDYNAMRGIEDDKLRLF
notes: 223 amino acids; calculated molecular weight 24762.44 Da; Found as monomer and dimer in solution, the monomer prevailing; the monomeric fraction was used in the cleavage assays; also called EndoMS/NucS; His-tagged NucSSam; not shown: His-tag, N-terminal, kept
On to B2, for which the “stoichiometry N” value in data set [2] amounted to 2.
